This series is described as follows: yeast display, Sf9 membrane polyspecificity reagent, FACS + sequencing; frameworks hold sequencing errors. In outline:
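Polyreactivity labels are assigned by the sorting gate from which each nanobody was recovered. The gates were low and high (top ~1%), set on anti-HA fluorescence for expression and streptavidin fluorescence for reagent binding. Before sorting, galactose-induced (36–48 hours) yeast display cells were stained for 1 hour at 4 °C with 10% biotinylated, detergent-solubilized Sf9 membrane reagent.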
On to “QVQLVESGGGLVQAGGSLRLSCADSGSTFRIFAMGWYRQAPGKERELVAAITGGGTHYADSVKGRFTISRDNAKNTVYLQMNSLTPEDTAVYYCAANRSKLYRYAMGYWGQGTQVTVSS”, for which the “polyreactivity (PSR sort gate)” value is on record as “high polyreactivity”.

Consider “QVQLVESGGGLVQAGGSLRLSCAASGSTYVSNAMGWYRQAPGKERELVAAISTSGGTTYYADSVKGRFTISRDNAKNTVYLQMNSLKPEDTAVYYCAADYKAYGRSYDYWGQGTQVTVSS”, for which the “polyreactivity (PSR sort gate)” value is “low polyreactivity”.

“QVQLVESGGGLVQAGGSLRLSCAASGSTFVFNAMGWYRQAPGKERELVAAISIDGSTNYADSVKGRFTISRDNANNSVYLQMNSLKPEDTAVYYCNAKRYGFFYWQGDYWGQGTQVTVSS”: the “polyreactivity (PSR sort gate)” value is “low polyreactivity”.

For “QVQLVESGGGLVQAGGSLSLSCAASGITLYRYVMGWYRQAPWKERELVADNTGRGTSTYYADSVKGRFTISRDNAKNTVYFQLNSLKPEDTAVYYCNAEYTKTGALVIPYTYYYAEDYWGQATQVTVSS”, the “polyreactivity (PSR sort gate)” value is listed as “low polyreactivity”.

As for “QVQLVESGGGLVHAGGSLRLSCAASGSTFPGYAMGWYRQAPGKERELVAAISKRGGSTRYADSVKGRFTISRDNANNTVYLQMNSLKPEDTAVYYCAASYSYSGSGGGYWGQGTQVTVSS”, the “polyreactivity (PSR sort gate)” value is on record as “high polyreactivity”.

Turning to “QVQLVESGGGLVQAGGSLRLSCAASGFTFGNYAMGWYRQAPGKERELVAVISRSGGNTYYADSVKGRFTISRDNAKNTVYLQMNSLKPEDTAVYYCAATLVGKVFRRFDYWGQGTQVTVSS”, the “polyreactivity (PSR sort gate)” value is on record as “high polyreactivity”.

For “QVQLVESGGGLVQAGGSLRLSCAASGSIFRRNAMGWYRQAPGKERELVAVITRSGGSTYYADSVKGRFTISRDNAKTTVDLQMNSLKPEDTAVYYCDASRSSTRSFDYWGQGTQVTVSS”, the “polyreactivity (PSR sort gate)” value is “high polyreactivity”.

Consider “QVQLVESGGGLVQAGGSLRLICAASGSTFGVNAMGWYRQAPGKERELVAAITQSGGSTFYADSVKGRFTISRDKAKNTVYLQMNSLKPEDTAVYYWGQGTQVTVSS”, for which the “polyreactivity (PSR sort gate)” value is on record as “low polyreactivity”.

With “QVQLVESGGGLVQAGGSLRLSCAASGFTFDRYAMGWYRQAPGKERELVAAISRSGGSTHYADSVKGRFTISRDNAKNTVYLQMNSLKPEDTAVYYCNKRWFYDGYDYWGQGTQVTVSS”, the “polyreactivity (PSR sort gate)” value is on record as “high polyreactivity”.

Consider “QVQLVESGRGLVQAGVSLRLSCAASGRTFVLYTMGWYRQAPGKERELVAAITKSGGSTYYADSVKGRFTISRDNAKNTVYLQMNSLKPEDTAVYYCAAARRYYTYYREDYYYWGQGTLVTVSS”, for which the “polyreactivity (PSR sort gate)” value is on record as “high polyreactivity”.

In the case of “QVQLVESGGGLVQAGGSLRISCAASGSIVYPYAMGWYRQAPGKERELVAAISYSGGSTYYADSVKGSFTISRDNAKNTVYLQMNSLKPEDTAVYYCNVYAGQYGMNYWGQGTQVTVSS”, the “polyreactivity (PSR sort gate)” value was “high polyreactivity”.

As to “QVQLVESGGGLVQAGGSLRLSCAASGSTFDYNAMGWYRQAPGKERELVAGISGGSSTNYADSVKGRFTISRDNAKNTVYLQMNSLKPEDTAVYYCNAQRLPLRYEMDYWGQGTQVTVSS”, the “polyreactivity (PSR sort gate)” value is given as “low polyreactivity”.

With “QVQLVESGGGLVQAGGSLGLSCAASGRTFSQYAMGWYRQAPGKERELVAAISWSGGYTYYADSVKGRFTISRDNAKNTVYLQMNSLKPEDTAVYYCAAVGKGSARSSYPVLYDYWGQGTQVTVSS”, the “polyreactivity (PSR sort gate)” value was “low polyreactivity”.

Regarding “QVQLVESGGGLVQAGGSLRLSCAASGRIYWNDMGWYIQAPGKERELVAAISWGGDRTYYADSVKGRFTISRDNAKNTVYLQMNSLKPEDTSVYYCNAPGYLTYDHSYDYWGQGTQVTVSS”, the “polyreactivity (PSR sort gate)” value was “low polyreactivity”.

Regarding “QVQLVESGGGLVQAGGSLRLSCAASGSTFSYNAKGWYRQAPGKERELANYADSVKGRFTISRDKAKNTVYLQMNSLKPEDTAVYYCAAVGFSYYVIRFDYWGQGTQVTVSS”, the “polyreactivity (PSR sort gate)” value was “low polyreactivity”.

Regarding “QVQLVESGGGLVQAGGSLRLSCAASASIFYYYAMGWYRQEPGKERELVAALSDSGSTNYADSVKGRFTISRDNAKNTVYLQLNSLKPEDTAVYYCAAGFGSRRYRGVYYKMYYRGQGTQVTVSS”, the “polyreactivity (PSR sort gate)” value was “high polyreactivity”.

For “QVQLVESGGGLVQAGGSLRLSCAASGSTFSNNAMGWYRQAPGNERELVAAISRSGGSTYYADSVKGRFTISRDNAKNTVYLQMNSLKPEDTAVYYCAVSPRYYRNGGAHLQYDYWGQGTHVTVSS”, the “polyreactivity (PSR sort gate)” value was “high polyreactivity”.

On to “QVQLVESGGGLVQAGGSLRLSCAASGSIFGYNAMGWYRQAPGKETELVAVITRSDGSTYYADSVKGRFTISRDNAKNTVYLQMNSLKPVDTAVYYCNAETHVYYWGVVIYEYNYWGQGTQVTVSS”, for which the “polyreactivity (PSR sort gate)” value is listed as “low polyreactivity”.

In the case of “QVQLVESGGGLVQAGGSLRLSCAASGSTFGVNAMGWYRQAPGKERELVATISRGTSTNYADSVKGRFTISRDNAKNTVYLQINSLKPEDTAVYYCAKRVFYPGAYRYYYWGQGTQVTVSS”, the “polyreactivity (PSR sort gate)” value is “high polyreactivity”.

On to “QVQLVESGGGLVQAGGSLRLSCAASGFIFQTNVMGWYRQAPGKERELVAAISSGDSTYYADSVKGRFTISRDNAKNTVYLQMNSLKPEDTAVYYCAARRGTGSYSYRYPYGYDYWGQGTQVTVSS”, for which the “polyreactivity (PSR sort gate)” value is listed as “low polyreactivity”.

In the case of “QVQIEESRGGLVQAGGSLRLSCAASGRIIDRYAMGWSRPAPRKERELVAAISSGGRTYYADSVKGRFTISRDNAKNTVYLQMHSLKPEDTAVYYCNAVAYSLSGYNSWGQGTQVTVSS”, the “polyreactivity (PSR sort gate)” value is “high polyreactivity”.

On to “QVQLVESGGGLVQAGGSLRLSCAASGFTFHWYVMGWYRQAPGKERELVAAISRNGGRTYYADSVKGRFTISRDNAKNTVYLQMNSLKPEDTAVYYCATDYGWLYINSIWEYDYWGQGTQVTVSS”, for which the “polyreactivity (PSR sort gate)” value was “high polyreactivity”.

As for “QVQLVESGGGLVQAGGSLRLSCAASGRIFDVYAMGWYRQAPGKERELVAAITWSGTSTYYADSVKGRFTISRDNAKNTVYLQMNSLKPEDTAVYYCAAEVAYTDTEYFWYYYWGQGTQVTVSS”, the “polyreactivity (PSR sort gate)” value is “high polyreactivity”.

Turning to “QVQLVESGGGLVQAGGSLRLSCAASGSTFRGNTMGWYRQAPGKERELVAVISWSDGHTYYADSVKGRFSSSRDYAKNTGYLQMNSLKPEDPAVYYCAAPDPFYDLDSWGQGTQVTVSS”, the “polyreactivity (PSR sort gate)” value is on record as “high polyreactivity”.

For “QVQLVESGGGLVQAGGSLRLSCPASGFTFYGYAMGWYRQAPGKERELVAAIRYSGGSTYYADSVKGRFTISRDNAKNTVYLQMNSLKPEDTAVYYCNKRLIYYRGTYYSRRFDYWGQGTQVTVSS”, the “polyreactivity (PSR sort gate)” value was “high polyreactivity”.

“QVQLVESGGGLVQAGGSLRLSCAASGLTFSTYAMGWYRQAPGKERELVATITYSGSSTYADSVKGRFTIARDNAKNTVYLQMNSLKPEDTAVYFCAAVTYHGNPSEYFPDTVGFYYWGQGTQVTVSS”: the “polyreactivity (PSR sort gate)” value is recorded as “low polyreactivity”.

As to “QVQLVESGGGLVQAGGSLRLSCAASGSIFQVYAMGWYRQAPGKEREFVAAISYSGGGTYYADSVKGRFTISRDNAKNTVYLQMNSLKPEDTAVYYCAADVSGWEYDYWGQGTQVTVSS”, the “polyreactivity (PSR sort gate)” value is “low polyreactivity”.

Regarding “QVQLVESGGGLVQAGGSLRLSCAASGSTSKNYAMGWYRQAPGKERELVAAITRGTSTNYADSVKGRFTISRDNAKNTVYLQMNSLKPEDTAVYYCNVERHRVWDYQWREEDDYWGQGTQVTVSS”, the “polyreactivity (PSR sort gate)” value was “low polyreactivity”.

As for “QVQLVESGGGLVQEGGSLRLSCASSGSTFRYNVMGWYRQAPGKERELVAAITRRGSRTYYADSVKGRFTISRDNAKNTVYLHMNSLKPADTAVYDCNKNSLSVPANDDYWGQGTQVTVSS”, the “polyreactivity (PSR sort gate)” value is “high polyreactivity”.

“QVQLVESGGGLVQAGGSLRLSCAASGSILRRYAMGWYRQAPWKERELVAAITSSGGGTYYADSVKGRFTISRDNAKNTVYLQMKSLKPEVTAVYYCAAEYGWLYEYDYWGQGTQVTVSS”: the “polyreactivity (PSR sort gate)” value is “high polyreactivity”.

Take “QVQLVESGGGLLQAGGSLRLSCSASGSTFDDYAMGWYRQAPGKERELVAAIRWSGGSTYYADSVKGRFTISRDNAKNTVYLQMKSLKPEDTAVYYCNADGRRGRYDYWGQGTQVTVSS”: the “polyreactivity (PSR sort gate)” value was “low polyreactivity”.

“QVQLVESGGGLVQAGGSLRLSCAASGITFRRYAMGWYRQAPGKERELVASITSNGGSTYYADSVKGRFTISRDTAKNTVYLQMNSLKPEDTAVYYFAADFAVGQWLTQTSVEYDYWGQGTQLTVSS”: the “polyreactivity (PSR sort gate)” value is listed as “high polyreactivity”.

For the sequence “QVQLVESGGGLVQAGGSLRLSCAASGRIFRGYAMGWYRQAPGKERELVAAISQSGSSTYYADSVKGRFTISRDNAKNTVYLQMNSLKPEDTAVYFCAVKYLKHFGYWGQGTQVTVSS”, the “polyreactivity (PSR sort gate)” value was “high polyreactivity”.

Take “QVQLVESGGGLVQAGGSLRLSCAASGSIIYTYAMGWYRQAPGKVRELVAAITGSDNTNYADSVKGRFTISRDNAKNTVYLQMNSLNPEDTAVYYCAADFPWSTKSWHPDSGDSWGQGTQVTVSS”: the “polyreactivity (PSR sort gate)” value is listed as “low polyreactivity”.

For the sequence “QVQLVESGGGLVQAGGSLRLSCAASGRTFPYYAMGWYRQATGKERELVAAITTNDGDTYYADSVKGRFTISRDNAKNTVYLQMNSLKPEDTAVYYCSADSGSTSEYEYWGQGTQVTVSS”, the “polyreactivity (PSR sort gate)” value is “low polyreactivity”.

As to “QVQLVESGGGLVQAGGSLRLSCAASGSTFQNNAMGWSRQAPGKERELVAGITGGGGNTNYADSVKGRFTISRDNTKNTVYLQMNSRTPEDTAVYYCAADDPWLGVDFGYWGQGTQVTLSS”, the “polyreactivity (PSR sort gate)” value is “low polyreactivity”.

In the case of “QVQLVESGGGIVQAGGSLRLSCAASGLIFYYYALGWYRQAPGKERQLVAAITSGSTTYADSVKGRFTISRDNAKNTVYLQMNSLKPEDTAVYYCNKDQDYKLTTTFDYDYWGQGTQVTVSS”, the “polyreactivity (PSR sort gate)” value was “low polyreactivity”.

“QVQLVESGGGLVQAGGSLRLSCAASGSTIYYYAMGWYRQAPGKERELVASISDDGSTNYADSVKGRFTISRDNAKNTVYLQMNSLKPEDTAVYYCAAVWWHQFGSAWYQMGYWGQGTQVTVSS”: the “polyreactivity (PSR sort gate)” value is “low polyreactivity”.

On to “QVQLVESGGGLVQAGGSLRLTCASSGITFGSYAMGWYTQAPGKERELVAAITWRGGSTFYADSVKGRFTISRDNAKITVYLQMNSLKPEDTAVYYCAATLTKYLPRYYWGHGTQVTVSS”, for which the “polyreactivity (PSR sort gate)” value was “low polyreactivity”.

With “QVQLVESGAGLVQAGGSLRLSCAASGSTFYPYAMGWYRQAPGKERELVAAISWSGGSTYYADSVKGRFTISRDNAKNTVYLQMNSLKPEDTAVYYCAAEYYYIAYTMDYWGQGTQVTVSS”, the “polyreactivity (PSR sort gate)” value was “high polyreactivity”.

In the case of “QDQLVDSGGGLVQAGGSLRLSCAASGFIFWYYAMGWYRQEPGKERELVAAITSGGNTNYADSVKGRFTISRDNAKNTFYLQMNSLKPEDTAVYYCATGRASGREHDSWGHGTQVTVSS”, the “polyreactivity (PSR sort gate)” value is recorded as “low polyreactivity”.

(Values after the nanobody polyreactivity screen of Harvey et al. (2022).)
